T1: corticotropin-releasing hormone (CRH) peptide (human and mouse (same sequence), not fully specified)
T1 peptide: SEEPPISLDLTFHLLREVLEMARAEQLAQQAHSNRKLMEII


Target: T1, corticotropin-releasing hormone (CRH) …
Experiment: cell-based or functional assay

| Binder | hCRHR1 Luciferase Reporter Assay IC50 [nM] | mCrhr1 Luciferase Reporter Assay IC50 [nM] | hCRHR1 Reporter IC50 [nM] |
| --- | --- | --- | --- |
| PR302341-56 (antibody, human IgG1, kappa, V domains shown) VH: QVQLVQSGAEVKKPGASVKVSCKASGYTFTDYFMKWVRQAPGQRLEWMGVINPNSGDIFYNQKFKGRVTITRDTSASTAYMELSSLRSEDTAVYYCARGTDRALFAYWGQGTLVTVSS VL: DVVMTQSPLSLPVTLGQPASISCRSGQSIVHSDGNTYLEWYQQRPGQSPRLLIYKVSNRFSGVPDRFSGSGSGTDFTLKISRVEAEDLGVYYCFQGSHIPWTFGGGTKVEIKR | 0.738 |  |  |
| PR302341-28 (antibody, human IgG1, kappa, V domains shown) VH: QVQLVQSGAEVKKPGASVKVSCKASGYTFTDYFMKWVRQAPGQGLEWMGVINPNQGDIFYNQKFKGRVTMTVDKSISTAYMELSRLRSDDTAVYYCARGTDRALFAYWGQGTLVTVSS VL: DVVMTQSPLSLPVTLGQPASISCRSGQSIVHSDGNTYLEWYQQRPGQSPRLLIYKVSNRFSGVPDRFSGSGSGTDFTLKISRVEAEDLGVYYCFQGSHIPWTFGGGTKVEIKR | 0.267 | 2.43 |  |
| PR302341-58 (antibody, human IgG1, kappa, V domains shown) VH: QVQLVQSGAEVKKPGASVKVSCKASGYTFTDYFMKWVRQAPGQRLEWMGVINPNNADIFYNQKFKGRVTITRDTSASTAYMELSSLRSEDTAVYYCARGTDRALFAYWGQGTLVTVSS VL: DVVMTQSPLSLPVTLGQPASISCRSGQSIVHSDANTYLEWYQQRPGQSPRLLIYKVSNRFSGVPDRFSGSGSGTDFTLKISRVEAEDLGVYYCFQGSHIPWTFGGGTKVEIKR | 0.571 | 3.54 |  |
| PR302341-29 (antibody, human IgG1, kappa, V domains shown) VH: QVQLVQSGAEVKKPGASVKVSCKASGYTFTDYFMKWVRQAPGQGLEWMGVINPNNADIFYNQKFKGRVTMTVDKSISTAYMELSRLRSDDTAVYYCARGTDRALFAYWGQGTLVTVSS VL: DVVMTQSPLSLPVTLGQPASISCRSGQSIVHSDGNTYLEWYQQRPGQSPRLLIYKVSNRFSGVPDRFSGSGSGTDFTLKISRVEAEDLGVYYCFQGSHIPWTFGGGTKVEIKR | 0.427 | 1.39 |  |
| PR302341-33 (antibody, human IgG1, kappa, V domains shown) VH: QVQLVQSGAEVKKPGASVKVSCKASGYTFTDYFMKWVRQAPGQGLEWMGVINPNNADIFYNQKFKGRVTMTVDKSISTAYMELSRLRSDDTAVYYCARGTDRALFAYWGQGTLVTVSS VL: DVVMTQSPLSLPVTLGQPASISCRSGQSIVHSDANTYLEWYQQRPGQSPRLLIYKVSNRFSGVPDRFSGSGSGTDFTLKISRVEAEDLGVYYCFQGSHIPWTFGGGTKVEIKR | 0.821 | 1.66 |  |
| PR302341-31 (antibody, human IgG1, kappa, V domains shown) VH: QVQLVQSGAEVKKPGASVKVSCKASGYTFTDYFMKWVRQAPGQGLEWMGVINPNNGDIFYNQKFKGRVTMTVDKSISTAYMELSRLRSDDTAVYYCARGTDRALFAYWGQGTLVTVSS VL: DVVMTQSPLSLPVTLGQPASISCRSGQSIVHSDANTYLEWYQQRPGQSPRLLIYKVSNRFSGVPDRFSGSGSGTDFTLKISRVEAEDLGVYYCFQGSHIPWTFGGGTKVEIKR | 0.498 |  |  |
| PR302341-32 (antibody, human IgG1, kappa, V domains shown) VH: QVQLVQSGAEVKKPGASVKVSCKASGYTFTDYFMKWVRQAPGQGLEWMGVINPNQGDIFYNQKFKGRVTMTVDKSISTAYMELSRLRSDDTAVYYCARGTDRALFAYWGQGTLVTVSS VL: DVVMTQSPLSLPVTLGQPASISCRSGQSIVHSEGNTYLEWYQQRPGQSPRLLIYKVSNRFSGVPDRFSGSGSGTDFTLKISRVEAEDLGVYYCFQGSHIPWTFGGGTKVEIKR | 1.89 |  |  |
| PR302341-57 (antibody, human IgG1, kappa, V domains shown) VH: QVQLVQSGAEVKKPGASVKVSCKASGYTFTDYFMKWVRQAPGQRLEWMGVINPNQGDIFYNQKFKGRVTITRDTSASTAYMELSSLRSEDTAVYYCARGTDRALFAYWGQGTLVTVSS VL: DVVMTQSPLSLPVTLGQPASISCRSGQSIVHSDGNTYLEWYQQRPGQSPRLLIYKVSNRFSGVPDRFSGSGSGTDFTLKISRVEAEDLGVYYCFQGSHIPWTFGGGTKVEIKR | 0.573 | 6.48 |  |
| PR302341-30 (antibody, human IgG1, kappa, V domains shown) VH: QVQLVQSGAEVKKPGASVKVSCKASGYTFTDYFMKWVRQAPGQGLEWMGVINPNNGDIFYNQKFKGRVTMTVDKSISTAYMELSRLRSDDTAVYYCARGTDRALFAYWGQGTLVTVSS VL: DVVMTQSPLSLPVTLGQPASISCRSGQSIVHSEGNTYLEWYQQRPGQSPRLLIYKVSNRFSGVPDRFSGSGSGTDFTLKISRVEAEDLGVYYCFQGSHIPWTFGGGTKVEIKR | 0.457 |  |  |

Second part, the binder after the results:

| hCRHR1 Luciferase Reporter Assay IC50 [nM] | mCrhr1 Luciferase Reporter Assay IC50 [nM] | hCRHR1 Reporter IC50 [nM] | Binder |
| --- | --- | --- | --- |
| 1.73 |  |  | PR302341-72 (antibody, human IgG1, kappa, V domains shown) VH: QVQLVQSGAEVKKPGASVKVSCKASGYTFTDYFMKWVRQAPGQRLEWMGVINPNNGDIFYNQKFKGRVTITRDTSASTAYMELSSLRSEDTAVYYCARGTDRALFAYWGQGTLVTVSS VL: DVVMTQSPLSLPVTLGQPASISCRSGQSIVHSSGNTYLEWYQQRPGQSPRLLIYKVSNRFSGVPDRFSGSGSGTDFTLKISRVEAEDLGVYYCFQGSHIPWTFGGGTKVEIKR |
| 1.88 |  | 1.82 | PR302341-61 (antibody, human IgG1, kappa, V domains shown) VH: QVQLVQSGAEVKKPGASVKVSCKASGYTFTDYFMKWVRQAPGQRLEWMGVINPNNADIFYNQKFKGRVTITRDTSASTAYMELSSLRSEDTAVYYCARGTDRALFAYWGQGTLVTVSS VL: DVVMTQSPLSLPVTLGQPASISCRSGQSIVHSEGNTYLEWYQQRPGQSPRLLIYKVSNRFSGVPDRFSGSGSGTDFTLKISRVEAEDLGVYYCFQGSHIPWTFGGGTKVEIKR |
| 2.05 |  |  | PR302341-63 (antibody, human IgG1, kappa, V domains shown) VH: QVQLVQSGAEVKKPGASVKVSCKASGYTFTDYFMKWVRQAPGQRLEWMGVINPNQGDIFYNQKFKGRVTITRDTSASTAYMELSSLRSEDTAVYYCARGTDRALFAYWGQGTLVTVSS VL: DVVMTQSPLSLPVTLGQPASISCRSGQSIVHSEGNTYLEWYQQRPGQSPRLLIYKVSNRFSGVPDRFSGSGSGTDFTLKISRVEAEDLGVYYCFQGSHIPWTFGGGTKVEIKR |
| 1.09 |  |  | PR302341-64 (antibody, human IgG1, kappa, V domains shown) VH: QVQLVQSGAEVKKPGASVKVSCKASGYTFTDYFMKWVRQAPGQRLEWMGVINPNNADIFYNQKFKGRVTITRDTSASTAYMELSSLRSEDTAVYYCARGTDRALFAYWGQGTLVTVSS VL: DVVMTQSPLSLPVTLGQPASISCRSGQSIVHSSGNTYLEWYQQRPGQSPRLLIYKVSNRFSGVPDRFSGSGSGTDFTLKISRVEAEDLGVYYCFQGSHIPWTFGGGTKVEIKR |
| 2.01 |  |  | PR302341-71 (antibody, human IgG1, kappa, V domains shown) VH: QVQLVQSGAEVKKPGASVKVSCKASGYTFTDYFMKWVRQAPGQRLEWMGVINPNNGDIFYNQKFKGRVTITRDTSASTAYMELSSLRSEDTAVYYCARGTDRALFAYWGQGTLVTVSS VL: DVVMTQSPLSLPVTLGQPASISCRSGQSIVHSEGNTYLEWYQQRPGQSPRLLIYKVSNRFSGVPDRFSGSGSGTDFTLKISRVEAEDLGVYYCFQGSHIPWTFGGGTKVEIKR |
| 0.878 | 4.7 |  | PR302341-60 (antibody, human IgG1, kappa, V domains shown) VH: QVQLVQSGAEVKKPGASVKVSCKASGYTFTDYFMKWVRQAPGQRLEWMGVINPNQGDIFYNQKFKGRVTITRDTSASTAYMELSSLRSEDTAVYYCARGTDRALFAYWGQGTLVTVSS VL: DVVMTQSPLSLPVTLGQPASISCRSGQSIVHSDANTYLEWYQQRPGQSPRLLIYKVSNRFSGVPDRFSGSGSGTDFTLKISRVEAEDLGVYYCFQGSHIPWTFGGGTKVEIKR |
| 3.12 |  |  | PR302341-65 (antibody, human IgG1, kappa, V domains shown) VH: QVQLVQSGAEVKKPGASVKVSCKASGYTFTDYFMKWVRQAPGQRLEWMGVINPNSGDIFYNQKFKGRVTITRDTSASTAYMELSSLRSEDTAVYYCARGTDRALFAYWGQGTLVTVSS VL: DVVMTQSPLSLPVTLGQPASISCRSGQSIVHSSGNTYLEWYQQRPGQSPRLLIYKVSNRFSGVPDRFSGSGSGTDFTLKISRVEAEDLGVYYCFQGSHIPWTFGGGTKVEIKR |
| 2.68 |  |  | PR302341-62 (antibody, human IgG1, kappa, V domains shown) VH: QVQLVQSGAEVKKPGASVKVSCKASGYTFTDYFMKWVRQAPGQRLEWMGVINPNSGDIFYNQKFKGRVTITRDTSASTAYMELSSLRSEDTAVYYCARGTDRALFAYWGQGTLVTVSS VL: DVVMTQSPLSLPVTLGQPASISCRSGQSIVHSEGNTYLEWYQQRPGQSPRLLIYKVSNRFSGVPDRFSGSGSGTDFTLKISRVEAEDLGVYYCFQGSHIPWTFGGGTKVEIKR |
| 1.6 |  |  | PR302341-70 (antibody, human IgG1, kappa, V domains shown) VH: QVQLVQSGAEVKKPGASVKVSCKASGYTFTDYFMKWVRQAPGQRLEWMGVINPNNGDIFYNQKFKGRVTITRDTSASTAYMELSSLRSEDTAVYYCARGTDRALFAYWGQGTLVTVSS VL: DVVMTQSPLSLPVTLGQPASISCRSGQSIVHSDANTYLEWYQQRPGQSPRLLIYKVSNRFSGVPDRFSGSGSGTDFTLKISRVEAEDLGVYYCFQGSHIPWTFGGGTKVEIKR |
| 1.04 | 4 |  | PR302341-59 (antibody, human IgG1, kappa, V domains shown) VH: QVQLVQSGAEVKKPGASVKVSCKASGYTFTDYFMKWVRQAPGQRLEWMGVINPNSGDIFYNQKFKGRVTITRDTSASTAYMELSSLRSEDTAVYYCARGTDRALFAYWGQGTLVTVSS VL: DVVMTQSPLSLPVTLGQPASISCRSGQSIVHSDANTYLEWYQQRPGQSPRLLIYKVSNRFSGVPDRFSGSGSGTDFTLKISRVEAEDLGVYYCFQGSHIPWTFGGGTKVEIKR |
| 4.13 |  |  | PR302341-66 (antibody, human IgG1, kappa, V domains shown) VH: QVQLVQSGAEVKKPGASVKVSCKASGYTFTDYFMKWVRQAPGQRLEWMGVINPNQGDIFYNQKFKGRVTITRDTSASTAYMELSSLRSEDTAVYYCARGTDRALFAYWGQGTLVTVSS VL: DVVMTQSPLSLPVTLGQPASISCRSGQSIVHSSGNTYLEWYQQRPGQSPRLLIYKVSNRFSGVPDRFSGSGSGTDFTLKISRVEAEDLGVYYCFQGSHIPWTFGGGTKVEIKR |
